# Reference: IntAct's records for PubMed 12912994
# B1: Mitogen-activated protein kinase kinase kinase 2 (Mus musculus), Q61083 (parent)
# chain: MDDQQALNSIMQDLAVLHKASRPALSLQETRKAKPSSPKKQNDVRVKFEHRGEKRILQVTRPVKLEDLRSKSKIAFGQSMDLHYTNNELVIPLTTQDDLDKAVELLDRSIHMKSLKILLVVNGSTQATNLEPSPSPEDLNNTPLGAERKKRLSVVGPPNRDRSSPPPGYIPDILHQIARNGSFTSINSEGEFIPESMDQMLDPLSLSSPENSGSGSCPSLDSPLDGESYPKSRMPRAQSYPDNHQEFTDYDNPIFEKFGKGGTYPRRYHVSYHHQEYNDGRKTFPRARRTQGTSFRSPVSFSPTDHSLSTSSGSSVFTPEYDDSRIRRRGSDIDNPTLTVTDISPPSRSPRAPTNWRLGKLLGQGAFGRVYLCYDVDTGRELAVKQVQFNPESPETSKEVNALECEIQLLKNLLHERIVQYYGCLRDPQEKTLSIFMELSPGGSIKDQLKAYGALTENVTRKYTRQILEGVHYLHSNMIVHRDIKGANILRDSTGNIKLGDFGASKRLQTICLSGTGMKSVTGTPYWMSPEVISGEGYGRKADIWSVACTVVEMLTEKPPWAEFEAMAAIFKIATQPTNPKLPPHVSDYTRDFLKRIFVEAKLRPSAEELLRHMFVHYH
# partner: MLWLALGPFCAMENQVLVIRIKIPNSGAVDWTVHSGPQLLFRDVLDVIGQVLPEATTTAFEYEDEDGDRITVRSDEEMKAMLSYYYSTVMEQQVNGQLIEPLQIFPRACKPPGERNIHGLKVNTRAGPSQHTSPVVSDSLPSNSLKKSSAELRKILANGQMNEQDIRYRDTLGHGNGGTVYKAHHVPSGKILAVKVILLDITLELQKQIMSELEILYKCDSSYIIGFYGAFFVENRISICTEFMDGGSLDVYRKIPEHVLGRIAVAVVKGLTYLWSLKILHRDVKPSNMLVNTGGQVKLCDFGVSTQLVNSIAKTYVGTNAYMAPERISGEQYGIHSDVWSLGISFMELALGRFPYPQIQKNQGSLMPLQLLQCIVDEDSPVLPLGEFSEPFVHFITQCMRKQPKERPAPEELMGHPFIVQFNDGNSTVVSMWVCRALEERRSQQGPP
# Variants of: B1
# Settings: with mp2k5_mouse Map2k5, Q9WVS7
row,effect of a mutation on the interaction,Variant
1,decreasing interaction,K47A
